Assay results: patent US20260000742

Molecular target: mature TGF-β1, P04202
Sequence (P04202 279-390): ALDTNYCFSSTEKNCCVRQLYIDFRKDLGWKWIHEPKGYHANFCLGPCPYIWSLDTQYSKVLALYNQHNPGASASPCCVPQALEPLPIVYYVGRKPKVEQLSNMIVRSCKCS

B1: Htra3 tagged with FLAG at the C-terminus (Htra3-flag protein) (protein)
chain: REPPAAPCPARCDVSRCPSPRCPGGYVPDLCNCCLVCAASEGEPCGRPLDSPCGDSLECVRGVCRCRWTHTVCGTDGHTYADVCALQAASRRALQVSGTPVRQLQKGACPSGLHQLTSPRYKFNFIADVVEKIAPAVVHIELFLRHPLFGRNVPLSSGSGFIMSEAGLIVTNAHVVSSSSTASGRQQLKVQLQNGDAYEATIQDIDKKSDIATIVIHPKKKLPVLLLGHSADLRPGEFVVAIGSPFALQNTVTTGIVSTAQRDGKELGLRDSDMDYIQTDAIINYGNSGGPLVNLDGEVIGINTLKVAAGISFAIPSDRITRFLSEFQNKHVKDWKKRFIGIRMRTITPSLVEELKAANPDFPAVSSGIYVQEVVPNSPSQRGGIQDGDIIVKVNGRPLADSSELQEAVLNESSLLLEVRRGNDDLLFSIIPEVVM
protein levels of TGF-β1 and phosphorylated Smad2/3 in primary cardiac fibroblasts (western blot): overexpression of Htra3 reduced the protein levels of both TGF-β1 and phosphorylated Smad2/3 (phospho-Smad2/3), a marker of activated TGF-β signaling
